Assay results reported in patent US20020127673A1 (REGENTS OF THE UNIVERSITY OF MICHIGAN, published 2002).
Blank lines part the entries; values can stand above or below the binder they belong to.

Assays:
HA-tagged wild-type Nod2 = molecular target: T1, HA-tagged wild-type Nod2 (human, UniProt Q9HC29 1-1040); test: co-immunoprecipitation from co-transfected HEK293T cells
T1 construct: Expressed by transfection in HEK293T cells and tested in cell lysates; also called wt Nod2; pcDNA3-Nod2-HA; not shown: HA tag
Text: The CARD motif functions as an effector domain that mediates specific homophilic interaction with downstream CARD-containing molecules (Hofmann et al., Trends Biochem. Sci. 22: 155-156 [1997]).

[1] = molecular target: the molecule itself; test: not described ('our observations')

binding result (HA-tagged wild-type Nod2): no binding
B1: Bcl-10 (other, UniProt O95999 1-233, looked up)
chain: MEPTAPSLTEEDLTEVKKDALENLRVYLCEKIIAERHFDHLRAKKILSREDTEEISCRTSSRKRAGKLLDYLQENPKGLDTLVESIRREKTQNFLIQKITDEVLKLRNIKLEHLKGLKCSSCEPFPDGATNNLSRSNSDESNFSEKLRASTVMYHPEGESSTTPFFSTNSSLNLPVLEVGRTENTIFSSTTLPRPGDPGAPPLPPDLQLEEEGTCANSSEMFLPLRSRTVSRQ
notes: Construct and tag not described

binding result (HA-tagged wild-type Nod2): no binding
B2: caspase-4 (enzyme, UniProt P49662 1-377, looked up)
chain: MAEGNHRKKPLKVLESLGKDFLTGVLDNLVEQNVLNWKEEEKKKYYDAKTEDKVRVMADSMQEKQRMAGQMLLQTFFNIDQISPNKKAHPNMEAGPPESGESTDALKLCPHEEFLRLCKERAEEIYPIKERNNRTRLALIICNTEFDHLPPRNGADFDITGMKELLEGLDYSVDVEENLTARDMESALRAFATRPEHKSSDSTFLVLMSHGILEGICGTVHDEKKPDVLLYDTIFQIFNNRNCLSLKDKPKVIIVQACRGANRGELWVRDSPASLEVASSQSSENLEEDAVYKTHVEKDFIAFCSSTPHNVSWRDSTMGSIFITQLITCFQKYSWCCHLEEVFRKVQQSFETPRAKAQMPTIERLSMTRYFYLFPGN
notes: as for B1

binding result (HA-tagged wild-type Nod2): no binding
B3: procaspase-9 (enzyme, UniProt P55211 1-416, looked up)
chain: MDEADRRLLRRCRLRLVEELQVDQLWDALLSRELFRPHMIEDIQRAGSGSRRDQARQLIIDLETRGSQALPLFISCLEDTGQDMLASFLRTNRQAAKLSKPTLENLTPVVLRPEIRKPEVLRPETPRPVDIGSGGFGDVGALESLRGNADLAYILSMEPCGHCLIINNVNFCRESGLRTRTGSNIDCEKLRRRFSSLHFMVEVKGDLTAKKMVLALLELAQQDHGALDCCVVVILSHGCQASHLQFPGAVYGTDGCPVSVEKIVNIFNGTSCPSLGGKPKLFFIQACGGEQKDHGFEVASTSPEDESPGSNPEPDATPFQEGLRTFDQLDAISSLPTPSDIFVSYSTFPGFVSWRDPKSGSWYVETLDDIFEQWAHSEDLQSLLLRVANAVSVKGIYKQMPGCFNFLRKKLFFKTS
notes: as for B1

B4: Nod2 lacking the LRRs (Nod2 1-744) (other)
chain: MGEEGGSASHDEEERASVLLGHSPGCEMCSQEAFQAQRSQLVELLVSGSLEGFESVLDWLLSWEVLSWEDYEGFHLLGQPLSHLARRLLDTVWNKGTWACQKLIAAAQEAQADSQSPKLHGCWDPHSLHPARDLQSHRPAIVRRLHSHVENMLDLAWERGFVSQYECDEIRLPIFTPSQRARRLLDLATVKANGLAAFLLQHVQELPVPLALPLEAATCKKYMAKLRTTVSAQSRFLSTYDGAETLCLEDIYTENVLEVWADVGMAGPPQKSPATLGLEELFSTPGHLNDDADTVLVVGEAGSGKSTLLQRLHLLWAAGQDFQEFLFVFPFSCRQLQCMAKPLSVRTLLFEHCCWPDVGQEDIFQLLLDHPDRVLLTFDGFDEFKFRFTDRERHCSPTDPTSVQTLLFNLLQGNLLKNARKVVTSRPAAVSAFLRKYIRTEFNLKGFSEQGIELYLRKRHHEPGVADRLIRLLQETSALHGLCHLPVFSWMVSKCHQELLLQEGGSPKTTTDMYLLILQHFLLHATPPDSASQGLGPSLLRGRLPTLLHLGRLALWGLGMCCYVFSAQQLQAAQVSPDDISLGFLVRAKGVVPGSTAPLEFLHITFQCFFAAFYLALSADVPPALLRHLFNCGRPGNSPMARLLPTMCIQASEGKDSSVAALLQKAEPHNLQITAAFLAGLLSREHWGLLAECQTSEKALLRHQACARWCLARSLRKHFHSIPPAAPGEAKSVHAMPGFIWLIR
notes: also called Nod2ΔLRR
binding result [1]: binds
